# Source: the supplement of paper PMC10567573
# B1: PRKX (parent)
# chain: KLLVVDRTRRLGNMKNGANDVKHH
# Variants of: B1
# Assay: protein stability index of a GFP-peptide fusion (GPS, HEK-293T) (PSI 1-6); higher = more stable
# Conditions: c terminus: a fixed tail appended
# 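Further: lentivirally expressed fusions sorted by FACS into six bins by GFP to DsRed ratio, PSI derived from sequencing read proportions per bin multiplied by bin number.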
row,Variant,protein stability index
1,KLLVVDRTRRLGNMKNGMNDVKHH,2.16
2,KLLVVDRTRRLGNMKNGKNDVKHH,3.21
3,KLLVVDRTRRLGNMKNGINDVKHH,2.35
4,KLLVVDRTRRLGNMKNGQNDVKHH,2.95
5,KLLVVDRTRRLGNMKNGDNDVKHH,3.85
6,KLLVVDRTRRLGNMKNGHNDVKHH,3.34
7,KLLVVDRTRRLGNMKNGSNDVKHH,3.27
8,KLLVVDRTRRLGNMKNGRNDVKHH,2.97
9,KLLVVDRTRRLGNMKNGNNDVKHH,3.19
10,KLLVVDRTRRLGNMKNGFNDVKHH,2.53
11,KLLVVDRTRRLGNMKNGENDVKHH,3.67
12,KLLVVDRTRRLGNMKNGPNDVKHH,2.87
13,KLLVVDRTRRLGNMKNGGNDVKHH,3.27
14,KLLVVDRTRRLGNMKNGLNDVKHH,2.7
15,KLLVVDRTRRLGNMKNGCNDVKHH,3.55
16,KLLVVDRTRRLGNKKNGANDVKHH,3.85
17,KLLVVDRTRRLGNCKNGANDVKHH,2.85
18,KLLVVDRTRRLGNFKNGANDVKHH,2.99
19,KLLVVDRTRRLGNVKNGANDVKHH,3.22
20,KLLVVDRTRRLGNDKNGANDVKHH,4.09
21,KLLVVDRTRRLGNGKNGANDVKHH,3.74
22,KLLVVDRTRRLGNEKNGANDVKHH,3.8
23,KLLVVDRTRRLGNPKNGANDVKHH,2.98
24,KLLVVDRTRRLGNRKNGANDVKHH,2.77

row,Variant,protein stability index
1,KLLVVDRTRRLGNYKNGANDVKHH,3.03
2,KLLVVDRTRRLGNAKNGANDVKHH,3.4
3,KLLVVDRTRRLGNQKNGANDVKHH,3.62
4,KLLVVDRTRRLGNTKNGANDVKHH,3
5,KLLVVDRTRRLGNLKNGANDVKHH,2.89
6,KLLVVDRTRRLGNNKNGANDVKHH,3.67
7,KLLVVDRTRRLGNSKNGANDVKHH,3.37
8,KLLVVDRTRRLGNIKNGANDVKHH,3.31
9,KLLVVDRTRRLGNWKNGANDVKHH,2.62
10,KLLVVDRTRRLGNHKNGANDVKHH,3.54
11,KLLVVDRTRRLGWMKNGANDVKHH,2.6
12,KLLVVDRTRRLGYMKNGANDVKHH,3
13,KLLVVDRTRRLGVMKNGANDVKHH,3.02
14,KLLVVDRTRRLGNMKWGANDVKHH,2.26
15,KLLVVDRTRRLGNMKQGANDVKHH,3.25
16,KLLVVDRTRRLGNMKTGANDVKHH,3.25
17,KLLVVDRTRRLGNMKAGANDVKHH,2.54
18,KLLVVDRTRRLGNMKCGANDVKHH,2.13
19,KLLVVDRTRRLGNMKHGANDVKHH,2.85
20,KLLVVDRTRRLGNMKFGANDVKHH,2.42
21,KLLVVDRTRRLGNMKEGANDVKHH,3.18
22,KLLVVDRTRRLGNMKSGANDVKHH,3.27
23,KLLVVDRTRRLGNMKRGANDVKHH,2.74
24,KLLVVDRTRRLGNMKDGANDVKHH,2.85

row,Variant,protein stability index
1,KLLVVDRTRRLGNMKLGANDVKHH,2.69
2,KLLVVDRTRRLGNMKYGANDVKHH,2.38
3,KLLVVDRTRRLGNMKMGANDVKHH,2.26
4,KLLVVDRTRRLGNMKIGANDVKHH,2.74
5,KLLVVDRTRRLGNMKGGANDVKHH,2.84
6,KLLVVDRTRRLGNMKVGANDVKHH,2.62
7,KLLVVDRTRRLGNMKKGANDVKHH,3.19
8,KLLVVDRTRRLGNMKPGANDVKHH,3.16
9,KLLVVDRTRRLGNMKNRANDVKHH,2.55
10,KLLVVDRTRRLGNMKNAANDVKHH,3.05
11,KLLVVDRTRRLGNMKNHANDVKHH,3.4
12,KLLVVDRTRRLGNMKNSANDVKHH,2.85
13,KLLVVDRTRRLGNMKNCANDVKHH,2.63
14,KLLVVDRTRRLGNMKNEANDVKHH,3.52
15,KLLVVDRTRRLGNMKNPANDVKHH,2.63
16,KLLVVDRTRRLGNMKNQANDVKHH,3
17,KLLVVDRTRRLGNMKNNANDVKHH,3.08
18,KLLVVDRTRRLGNMKNVANDVKHH,3.04
19,KLLVVDRTRRLGNMKNYANDVKHH,2.34
20,KLLVVDRTRRLGNMKNLANDVKHH,2.81
21,KLLVVDRTRRLGNMKNKANDVKHH,3.06
22,KLLVVDRTRRLGNMKNWANDVKHH,1.86
23,KLLVVDRTRRLGNMKNDANDVKHH,3.5
24,KLLVVDRTRRLGNMKNTANDVKHH,2.9

row,Variant,protein stability index
1,KLLVVDRTRRLGNMKNMANDVKHH,2.63
2,KLLVVDRTRRLGNMKNIANDVKHH,2.74
3,KLLVVDRTRRLGNMKNFANDVKHH,1.81
4,KLLVVDRTRRLGNMRNGANDVKHH,3.6
5,KLLVVDRTRRLGNMVNGANDVKHH,2.72
6,KLLVVDRTRRLGNMQNGANDVKHH,3.5
7,KLLVVDRTRRLGNMLNGANDVKHH,2.86
8,KLLVVDRTRRLGNMTNGANDVKHH,2.78
9,KLLVVDRTRRLGNMINGANDVKHH,2.73
10,KLLVVDRTRRLGNMCNGANDVKHH,2.57
11,KLLVVDRTRRLGNMSNGANDVKHH,3.47
12,KLLVVDRTRRLGNMDNGANDVKHH,3.85
13,KLLVVDRTRRLGNMANGANDVKHH,3.25
14,KLLVVDRTRRLGNMNNGANDVKHH,2.95
15,KLLVVDRTRRLGNMPNGANDVKHH,2.9
16,KLLVVDRTRRLGNMENGANDVKHH,3.92
17,KLLVVDRTRRLGNMGNGANDVKHH,3.38
18,KLLVVDRTRRLGNMFNGANDVKHH,2.85
19,KLLVVDRTRRLGNMWNGANDVKHH,2.48
20,KLLVVDRTRRLGNMYNGANDVKHH,2.68
21,KLLVVDRTRRLGNMHNGANDVKHH,3.27
22,KLLVVDRTRRLGNMMNGANDVKHH,2.73
